Data: patent publication US8022177B2, “Peptides and calcium regulation in mammalian cells” (The Board of Trustees of the University of Illinois, priority 2005, dated 2011)

B1: γ4: rat calcium channel γ4 subunit (AF361341), SEQ ID NO:47 (protein, listed as Rattus norvegicus)
chain: MVRCDRGLQMLLTTAGAFAAFSLMAIAIGTDYWLYSSAHICNGTNLTMDDGPPPRRARGDLTHSGLWRVCCIEGIYKGHCFRINHFPEDNDYDHDSSEYLLRIVRASSVFPILSTILLLLGGLCIGAGRIYSRKNNIVLSAGILFVAAGLSNIIGIIVYISSNTGDPSDKRDEDKKNHYNYGWSFYFGALSFIVAETVGVLAVNIYIEKNKELRFKTKREFLKASSSSPYSRMPSYRYRRRRSRSSSRSTEASPSRDASPVGLKITGAIPMGELSMYTLSREPLKVTTAASYSPDQDAGFLQMHDFFQQDLKEGFHVSMLNRRTTPV
B2: γ6L: rat calcium channel γ6 subunit, long isoform (AF361343), SEQ ID NO:48 (protein, listed as Rattus norvegicus)
chain: MMWSNFFMQEEDRRRTAVGRRRAQEQQNLGLTPEREGKIKLGLLVAIVGATLAVLAVGTEFWVELNTYKTNGSAVCEAAHLGLWKVCIKRLWQADVPAGRETCGPAELPGEANCTYFKFFTTGENAHIFQRTTKKEVNLAAAVIAVLGLTAMALGCLCVIMVLSKGAEFLLRLGAVCFGLSGLLLFVSLEVFRHSVRALLQGVNPETPPAPRLAYEYSWSLGCGVGAGLILLLGGVCFLLLTLPSWPWRSLCPKRGGPTA

Test system: endogenous LVA calcium current in HL-1 cells
Assay: Whole-cell patch clamp of endogenous LVA calcium current in HL-1 cells transfected with γ subunits
Type: cell-based, mouse
Experimental: HL-1 cells were a gift from Dr. William C. Claycomb and were maintained as previously reported. Briefly, HL-1 cells were grown in HL-1 medium containing Claycomb medium (JRH Biosciences) supplemented with 10% fetal bovine serum (JRH Biosciences), 0.1 mM norepinephrine (Sigma), 2 mM L-glutamine (Sigma), and 100 U/ml:100 μg/ml:250 ng/ml of penicillin/streptomycin/ amphotericin B (Life Technologies) in a humidified 5% CO2 incubator at 37° C. Cells were passed when confluent at a 1:3 dilution into flasks or plates pre-coated with a 1:80 dilution of fibronectin and 0.02% gelatin (Sigma). Cells from passages 86-108 were used for this study.
2.3. Transfection. Untransfected HEK-293 cells, HEK-293 cell lines stably transfected with Cav3.1, and HL-1 cells were transiently transfected with vectors containing γ subunit, GFP, and modified CFP cDNAs using Lipofectamine 2000 reagent (InVitrogen) as per the manufacturer's recommendations. HEK-293 cells were grown to 70-80% confluence before transfection. HL-1 cells were grown to 50-75% confluence before transfection.
2.4. Electrophysiology. Whole-cell calcium currents were recorded using an Axopatch-1 D patch clamp system and Clampex 8.0 software. Pipettes were fabricated from borosilicate glass and had typical resistances of 2-4 MΩ. […]
Recordings from HEK-293 cells were made 48-96 h posttransfection, at which time expression, as measured by GFP fluorescence, peaked. […] Current-voltage relationships for all HEK-293 and HL-1 cells were measured using 50 ms test depolarizations. Peak current amplitudes for activation curves were determined by fitting tail currents, elicited by stepping membrane voltage from varying test potentials to −60 mV, with the Boltzman equation. […] Inactivation curves were determined by fitting peak amplitudes of currents, observed in a test pulse to −20 mV, following 500 ms steps to varying potentials, with the Boltzman equation. Time to peak was determined using the current-voltage protocol described above. […]

Molecule | LVA current density | Reduction of endogenous LVA current density from control (transient expression)
B1 | 9.14±1.34 pA/pF | –
B2 | 3.37±0.62 pA/pF | 63%
